In US20250122303A1 (HUMMINGBIRD BIOSCIENCE PTE, published 2025):
Residue numbers refer to the chain shown, from its start. Names and notes keep the numbering of the source. Blank lines part the entries; values can stand above or below the binder they belong to.

Tests used:
[1] = biological target: T1, human HER3 expressed on cells (HEK293 HER3 O/E cells) (human, UniProt P21860 20-1342); assay: flow cytometry, HEK293 and HEK293 cells overexpressing human HER3, 20 ug/ml antibody, FITC anti-Fc secondary
T1 construct: Also used here for HER3 on U2OS cells of the PathHunter kit and on cancer cell lines; also called HEK293 cells transfected with vector encoding human HER3; human HER3-expressing cells
Protocol: The cells were washed thrice with FACS buffer (PBS with 5 mM EDTA and 0.5% BSA) and resuspended in FITC-conjugated anti-FC antibody (Invitrogen, USA) for 40 min at 2-8° C. Cells were washed again and resuspended in 200 μL of FACS flow buffer (PBS with 5 mM EDTA) for flow cytometric analysis using MACSQuant 10 (Miltenyi Biotec, Germany). After acquisition, all raw data were analyzed using Flowlogic software. Cells were gated using forward and side scatter profile percentage of positive cells was determined for native and overexpressing cell populations.

His-tagged human HER3 [2] = biological target: T2, His-tagged human HER3 (human, UniProt P21860 20-643); assay: plate ELISA dimerisation assay; HER2-Fc coated, constant HER3 His and NRG, antibody varied; blocked partner HER2-Fc
T2 construct: Antigen of the BLI experiments and of the HER2-Fc dimerisation ELISA; also called HER3 His; not shown: His tag
Protocol: Plate-based ELISA dimerisation assays were carried out according to standard protocols. Plates were coated with 1 μg/ml HER2-Fc protein. […] Plates were then washed and incubated for 1 hour with secondary anti-HIS HRP antibody. […] The absorbance was read at 450 nm.

[3] = biological target: T3, His-tagged FcγRIIIa (V158) (human, UniProt P08637 17-208); assay: Bio-Layer Interferometry; His-tagged FcγRIIIa (V158) on anti-Penta-HIS tips, antibody in solution
T3 construct: not shown: His tag
Protocol: (§1) All measurements were performed at 25° C. with agitation at 1000 rpm. […] Sensograms were referenced for buffer effects and then fitted using the Octet QK384 user software (Pall ForteBio, USA). Kinetic responses were subjected to a global fitting using a one site binding model to obtain values for association (Kₒₙ), dissociation (Koff) rate constants and the equilibrium dissociation constant (KD). Only curves that could be reliably fitted with the software (R²>0.90) were included in the analysis.
BLI was performed as described above.

moFcRn = biological target: T4, moFcRn (mouse, UniProt Q61559); assay: Bio-Layer Interferometry (determined as described in Example 7)
T4 construct: recombinant; also called mouse FcRn; gene FCGRT (so in the source)
T4 sequence (receptor, looked up): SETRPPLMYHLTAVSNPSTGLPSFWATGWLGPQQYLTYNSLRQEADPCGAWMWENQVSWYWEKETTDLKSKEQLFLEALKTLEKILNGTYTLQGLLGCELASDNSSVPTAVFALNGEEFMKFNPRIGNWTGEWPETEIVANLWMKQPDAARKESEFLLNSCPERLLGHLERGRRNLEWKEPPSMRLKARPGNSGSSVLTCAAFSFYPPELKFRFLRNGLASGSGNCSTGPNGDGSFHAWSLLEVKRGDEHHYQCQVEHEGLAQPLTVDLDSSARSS
T4 sequence (looked up): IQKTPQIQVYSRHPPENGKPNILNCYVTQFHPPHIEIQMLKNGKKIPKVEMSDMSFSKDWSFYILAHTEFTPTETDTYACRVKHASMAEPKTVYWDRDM

FcRn = biological target: T5, FcRn (human, UniProt P55899); assay: as above
T5 construct: recombinant; also called human FcRn; gene FCGRT (so in the source)

His-tagged human HER3 [4] = biological target: T2, His-tagged human HER3; assay: Bio-Layer Interferometry (Octet QK384); antibody on anti-Human IgG Capture tips, HIS-tagged human HER3 at 30.3, 60.5, 121 and 242 nM
moFcgRIV = biological target: T6, moFcgRIV; assay: Bio-Layer Interferometry (determined as described in Example 7)
T6 construct: also called CD16-2; mFcγRIV
T6 chain: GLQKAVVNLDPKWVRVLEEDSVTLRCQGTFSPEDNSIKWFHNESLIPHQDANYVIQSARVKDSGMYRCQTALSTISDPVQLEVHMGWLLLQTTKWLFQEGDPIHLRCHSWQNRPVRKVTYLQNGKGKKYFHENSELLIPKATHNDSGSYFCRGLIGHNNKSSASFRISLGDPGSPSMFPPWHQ

FcgRIIA (R167) = biological target: T7, FcgRIIA (R167) (human, UniProt P12318); assay: as above
T7 construct: recombinant; also called CD32A; hFcγRIIa167R
T7 sequence (receptor, looked up): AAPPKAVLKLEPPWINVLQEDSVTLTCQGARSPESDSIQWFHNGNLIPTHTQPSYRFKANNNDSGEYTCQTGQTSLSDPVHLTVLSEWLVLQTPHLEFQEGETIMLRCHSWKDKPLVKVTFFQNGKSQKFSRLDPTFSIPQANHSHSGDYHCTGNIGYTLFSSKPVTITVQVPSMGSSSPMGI

[5] = biological target: T3, His-tagged FcγRIIIa (V158); assay: as above
FcgRIIIA (F158) = biological target: T8, FcgRIIIA (F158) (human, UniProt P08637); assay: as above
T8 construct: recombinant; also called CD16A; hFcγRIIIa158F

FcgRIIB = biological target: T9, FcgRIIB (human, UniProt P31994); assay: as above
T9 construct: recombinant; also called CD32B; hFcγRIIb
T9 sequence (receptor, looked up): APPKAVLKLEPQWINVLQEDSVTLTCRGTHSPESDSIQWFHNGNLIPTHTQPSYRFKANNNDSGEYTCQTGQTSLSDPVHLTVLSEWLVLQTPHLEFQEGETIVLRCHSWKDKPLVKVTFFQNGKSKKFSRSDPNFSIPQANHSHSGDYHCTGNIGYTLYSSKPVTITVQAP

FcgRIIA (H167) = biological target: T10, FcgRIIA (H167) (human, UniProt P12318); assay: as above
T10 construct: recombinant; also called CD32A; hFcγRIIa167H
T10 sequence (receptor, looked up): T7 sequence (receptor, looked up) with R132H

His-tagged human HER3 [6] = biological target: T2, His-tagged human HER3; assay: BLI (Octet QK384), antibody on anti-human IgG capture tips, His-tagged human HER3 in solution, global one-site fit
Protocol: as §1, with “The anti-HER3 antibody clones in IgG1 format were analysed for binding affinity to human HER3. Bio-Layer Interferometry (BLI) experiments were performed using the Octet QK384 system (ForteBio). anti-Human IgG Capture (AHC) Octet sensor tips (Pall ForteBio, USA) were used to anti-HER3 antibodies (25 nM). All” for “All”

B3: 10D1 GASD variant (antibody, human IgG1, kappa)
heavy: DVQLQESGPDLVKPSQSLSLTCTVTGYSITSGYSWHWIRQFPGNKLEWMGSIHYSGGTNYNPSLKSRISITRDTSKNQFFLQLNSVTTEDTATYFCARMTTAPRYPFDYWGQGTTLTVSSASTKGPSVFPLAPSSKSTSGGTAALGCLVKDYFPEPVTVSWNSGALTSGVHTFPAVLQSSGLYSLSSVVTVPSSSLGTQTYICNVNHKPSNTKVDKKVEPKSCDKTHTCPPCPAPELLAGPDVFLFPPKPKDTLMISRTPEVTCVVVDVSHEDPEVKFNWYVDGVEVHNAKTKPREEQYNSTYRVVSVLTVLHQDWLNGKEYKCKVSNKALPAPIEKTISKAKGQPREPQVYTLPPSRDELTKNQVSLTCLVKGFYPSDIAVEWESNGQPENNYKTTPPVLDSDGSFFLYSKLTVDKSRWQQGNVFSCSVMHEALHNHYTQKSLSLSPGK
light: DIVMTQSQKFMSTSVGDRVSVTCKASQIVGSNVAWYQQKPGQSPKPLIYSASYRYSGVPDRFTASGSGTDFTLTITNVQSEDLAEYFCQQYSSHPLTFGAGTKLELKRTVAAPSVFIFPPSDEQLKSGTASVVCLLNNFYPREAKVQWKVDNALQSGNSQESVTEQDSKDSTYSLSSTLTLSKADYEKHKVYACEVTHQGLSSPVTKSFNRGEC
notes: also called Fc-modified anti-HER3 antibody clone 10D1 comprising GASD substitutions in CH2 region
Kd [3]: 58 nM
koff [3]: 0.009 s⁻¹
kon [3]: 160000 M⁻¹ s⁻¹

B4: 10D1F hIgG1 N297Q (antibody)
heavy chain: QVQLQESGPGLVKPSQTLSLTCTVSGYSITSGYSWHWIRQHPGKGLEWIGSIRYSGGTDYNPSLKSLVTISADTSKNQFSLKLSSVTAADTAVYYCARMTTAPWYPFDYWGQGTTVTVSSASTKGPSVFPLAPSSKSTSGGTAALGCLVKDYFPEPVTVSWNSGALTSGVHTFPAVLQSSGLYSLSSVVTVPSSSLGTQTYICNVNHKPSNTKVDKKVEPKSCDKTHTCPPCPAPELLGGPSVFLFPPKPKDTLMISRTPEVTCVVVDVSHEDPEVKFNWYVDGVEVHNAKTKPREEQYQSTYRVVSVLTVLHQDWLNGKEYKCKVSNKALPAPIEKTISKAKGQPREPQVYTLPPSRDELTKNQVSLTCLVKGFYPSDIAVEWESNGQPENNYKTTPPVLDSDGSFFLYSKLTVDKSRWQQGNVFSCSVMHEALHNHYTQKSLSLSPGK
light chain: DIQMTQSPSSVSASVGDRVTITCKASQIVGSNVAWYQQKPGKAPEPLIYSASYLYSGVPSRFSGSGSGTDFTLTISSLQPEDFATYYCQQYSSHPLTFGQGTKLEIKRTVAAPSVFIFPPSDEQLKSGTASVVCLLNNFYPREAKVQWKVDNALQSGNSQESVTEQDSKDSTYSLSSTLTLSKADYEKHKVYACEVTHQGLSSPVTKSFNRGEC
Kd (moFcRn): 13.7 nM
Kd (FcRn): 54.6 nM

B5: 10D1F.FcB (antibody, human IgG1, kappa)
heavy: QVQLQESGPGLVKPSQTLSLTCTVSGYSITSGYSWHWIRQHPGKGLEWIGSIRYSGGTDYNPSLKSLVTISADTSKNQFSLKLSSVTAADTAVYYCARMTTAPWYPFDYWGQGTTVTVSSASTKGPSVFPLAPSSKSTSGGTAALGCLVKDYFPEPVTVSWNSGALTSGVHTFPAVLQSSGLYSLSSVVTVPSSSLGTQTYICNVNHKPSNTKVDKKVEPKSCDKTHTCPPCPAPELLAGPDVFCFPPKPKDTLMISRTPEVTCVVVDVSHEDPEVKFNWYVDGVEVHNAKTKPREEQYNSTYRVVSVLTVLHQDWLNGKEYKCKVSNKALPLPEECTISKAKGQPREPQVYTLPPSRDELTKNQVSLTCLVKGFYPSDIAVEWESNGQPENNYKTTPPVLDSDGSFFLYSKLTVDKSRWQQGNVFSCSVMHEALHNHYTQKSLSLSPGK
light: B4 light chain
notes: also called 10D1F.B
Kd (His-tagged human HER3 [4]): 0.0222 nM
koff (His-tagged human HER3 [4]): 4.96e-06 s⁻¹
kon (His-tagged human HER3 [4]): 223000 M⁻¹ s⁻¹
Kd (moFcRn): 15.2 nM
Kd (moFcgRIV): 55.4 nM
Kd (FcgRIIA (R167)): 400 nM
Kd [5]: 82.1 nM
Kd (FcgRIIIA (F158)): 162 nM
Kd (FcgRIIB): 580 nM
Kd (FcgRIIA (H167)): 561 nM
Kd (FcRn): 37.4 nM

The remaining lines, values ahead:

binding result [1]: binds
B1: anti-HER3 clone 10A6 IgG1 (antibody, V domains shown)
VH: DVQLQESGPGLVKPSQSLSLTCSVTGNFITSGYFWNWIRQFPGNKLEWMGFISYDGSNNYKPSLKNRISITRDTSKNQFFLKLNSVTTEDTATYYCARENYGFGFDYWGQGTTLTVSS
VL: DIVLTQSPSSLPVSIGEKVTMSCKSSQSLLYSDNQKNYLAWYQQKPGQSPKLLIYWASTWKSGVPDRFTGSGSGTDFTLTISSVKAEDLAVYYCQQYFTFPWTFGGGTKLEIKR
notes: Human-mouse chimeric IgG1/kappa

IC50 (His-tagged human HER3 [2]): 80.2 nM
B2: M-05-74 (antibody, V domains shown)
VH: QVQLQQSGAELAKPGASVKMSCKTSGYTLTDYWIHWVKQRPGQGLEWIGYINPYTGYTESNQKFKDKATLTADKSSNTAYIQLSSLTSEDSAVYYCARPYYYGDYWGQGTTLTVSS
VL: QIVLTQSPAIMSASPGERVTITCSASSSVSYMHWFQQKPGTSPKLLIYSTSNLASGVPARFSGSGSGTSYSLTISRMEAEDAATYYCQQRSSYPFTFGSGTKLEIK

Kd (His-tagged human HER3 [6]): 50.3 nM
B6: anti-HER3 clone 4-35-B4 IgG1 (antibody, V domains shown)
VH: EVQLQQSGAELVKPGASVKLSCTASGFNIKDTYIHWVKQRPDQGLEWIGKIIDPANGNTNYDPKFQGKATITADTSSNTAYLQLSSLSSEDTAVYFCARGLHWGQGTTLTVSS
VL: DIVLTQSPASLAVSLGQRATISCRASKSVSTSGYSYMHWYQQKPGQPPKLLIYLASNLESGVPARFSGSGSGTDFTLNIHPVEEEDAATYYCQHSRELPYTFGGGTKLEIKR
notes: as for B1
